Test results published in patent US20070060537.

Tests used:
[1] = target: His6-UbcH13/Uev1a, Q13404
[2] = target: E2 Ubch5c from bacteria, P61077
Chain of E2 Ubch5c from bacteria, P61077 (P61077 whole entry): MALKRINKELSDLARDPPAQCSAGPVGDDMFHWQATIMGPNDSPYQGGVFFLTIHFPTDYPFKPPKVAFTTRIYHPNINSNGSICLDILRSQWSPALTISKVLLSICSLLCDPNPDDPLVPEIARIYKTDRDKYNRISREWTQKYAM

Chain of GST-UbcH5a, P51668 (P51668 whole entry): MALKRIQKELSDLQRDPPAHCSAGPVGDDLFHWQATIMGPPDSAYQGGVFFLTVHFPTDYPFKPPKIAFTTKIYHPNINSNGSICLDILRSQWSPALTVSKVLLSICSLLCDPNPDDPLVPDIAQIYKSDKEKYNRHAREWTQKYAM
Chain of GST-UbcH5c, P61077 (P61077 whole entry): as the sequence (P61077 whole entry) above
Chain of His-UbcH6, P51965 (P51965 whole entry): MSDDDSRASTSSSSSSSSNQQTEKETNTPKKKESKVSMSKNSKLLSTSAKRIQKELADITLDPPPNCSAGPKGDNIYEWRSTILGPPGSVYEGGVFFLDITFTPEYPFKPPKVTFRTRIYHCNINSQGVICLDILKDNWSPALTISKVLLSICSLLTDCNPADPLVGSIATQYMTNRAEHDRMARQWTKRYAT
Chain of His6-UbcH13/Uev1a, Q13404 (chain, as listed by the source, chain 1 of 2): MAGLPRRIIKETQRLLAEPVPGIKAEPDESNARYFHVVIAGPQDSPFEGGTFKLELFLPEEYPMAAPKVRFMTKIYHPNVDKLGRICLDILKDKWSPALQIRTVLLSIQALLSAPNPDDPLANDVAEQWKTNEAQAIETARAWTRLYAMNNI
Chain of His6-UbcH13/Uev1a, Q13404 (Q13404 other isoform, or with tags, fused parts or gaps, chain 2 of 2): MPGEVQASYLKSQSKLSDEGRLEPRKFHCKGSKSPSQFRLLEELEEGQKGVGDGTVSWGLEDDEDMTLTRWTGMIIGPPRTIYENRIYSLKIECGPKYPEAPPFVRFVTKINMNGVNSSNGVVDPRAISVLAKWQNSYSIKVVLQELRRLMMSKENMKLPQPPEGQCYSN

Protein | self-ubiquitination of hPOSH (high molecular weight ubiquitin-biotin conjugates, streptavidin blot) (GST-UbcH5a, P51668) | self-ubiquitination of hPOSH (high molecular weight ubiquitin-biotin conjugates, streptavidin blot) (GST-UbcH5c, P61077) | self-ubiquitination of hPOSH (high molecular weight ubiquitin-biotin conjugates, streptavidin blot) (His-UbcH6, P51965) | self-ubiquitination of hPOSH (high molecular weight ubiquitin-biotin conjugates, streptavidin blot) [1] | in-vitro self-ubiquitination of hPOSH (anti-ubiquitin immunoblot) [2]
GST-hPOSH1-139 (protein) MDESALLDLLECPVCLERLDASAKVLPCQHTFCKRCLLGIVGSRNELRCPECRTLVGSGVEELPSNILLVRLLDGIKQRPWKPGPGGGSGTNCTNALRSQSSTVANCSSKDLQSSQGGQQPRVQSWSPPVRGIPQLPCA | conjugation of ubiquitin to hPOSH was supported by four E2s, UbCH13/Uevla, UBCH5a, UBCH5c and UBCH6 | conjugation of ubiquitin to hPOSH was supported by four E2s, UbCH13/Uevla, UBCH5a, UBCH5c and UBCH6 | conjugation of ubiquitin to hPOSH was supported by four E2s, UbCH13/Uevla, UBCH5a, UBCH5c and UBCH6 | conjugation of ubiquitin to hPOSH was supported by four E2s, UbCH13/Uevla, UBCH5a, UBCH5c and UBCH6 | 
POSH #178 (1-361) gst fusion (protein) MDESALLDLLECPVCLERLDASAKVLPCQHTFCKRCLLGIVGSRNELRCPECRTLVGSGVEELPSNILLVRLLDGIKQRPWKPGPGGGSGTNCTNALRSQSSTVANCSSKDLQSSQGGQQPRVQSWSPPVRGIPQLPCAKALYNYEGKEPGDLKFSKGDIIILRRQVDENWYHGEVNGIHGFFPTNFVQIIKPLPQPPPQCKALYDFEVKDKEADKDCLPFAKDDVLTVIRRVDENWAEGMLADKIGIFPISYVEFNSAAKQLIEWDKPPVPGVDAGECSSAAAQSSTAPKHSDTKKNTKKRHSFTSLTMANKSSQASQNRHSMEISPPVLISSSNPTAAARISELSGLSCSAPSQVHIST |  |  |  |  | Ub-hPOSHconjugates, detected as high molecular weight adducts only in reactions containing E1, E2 and ubiquitin
POSH # 176 (1-269) gst fusion (protein) MDESALLDLLECPVCLERLDASAKVLPCQHTFCKRCLLGIVGSRNELRCPECRTLVGSGVEELPSNILLVRLLDGIKQRPWKPGPGGGSGTNCTNALRSQSSTVANCSSKDLQSSQGGQQPRVQSWSPPVRGIPQLPCAKALYNYEGKEPGDLKFSKGDIIILRRQVDENWYHGEVNGIHGFFPTNFVQIIKPLPQPPPQCKALYDFEVKDKEADKDCLPFAKDDVLTVIRRVDENWAEGMLADKIGIFPISYVEFNSAAKQLIEWDKP |  |  |  |  | Ub-hPOSHconjugates, detected as high molecular weight adducts only in reactions containing E1, E2 and ubiquitin
